Values belong to the binder of their own block, whether it stands above or below them.
How the values were obtained:
HLA-B08:01 [1] = molecular target: HLA-B08:01 (human); test: pMHC-I dissociation half-life, 125I-b2m
Description: Briefly, synthetic genes encoding biotinylated MHC-I heavy and light chains are expressed in E. coli and purified from inclusion bodies using standard methods. The light chain (β2m) is radio-labeled with iodine (¹²⁵I), and combined with the purified MHC-I heavy chain and peptide of interest at 18° C. to initiate pMHC-I complex formation. These reactions are carried out in streptavidin coated microplates to bind th biotinylated MHC-I heavy chains to the surface and allow measurement of radiolabeled light chain to monitor complex formation. Dissociation is initiated by addition of higher concentations of unlabled light-chain and incubation at 37° C. Stability is defined as the length of time in hours it takes for half of the complexes to dissociate, as measured by scintillation counts

HLA-B08:01 [2] = molecular target: HLA-B08:01 (human); test: competition with 125I probe peptide on purified HLA
Description: Immunol. 31:813, 1994; Sidney et al., in Current Protocols in Immunology, Margulies, Ed., John Wiley & Sons, New York, Section 18.3, 1998).
(§1) Following incubation, MHC-peptide complexes are separated from free peptide by gel filtration on 7.8 mm×15 cm TSK200 columns (TosoHaas 16215, Montgomeryville, PA). Because the large size of the radiolabeled peptide used for the DRB1*1501 (DR2w2(31) assay makes separation of bound from unbound peaks more difficult under these conditions, all DRB1*1501 (DR2w2(31) assays were performed using a 7.8 mm×30 cm TSK2000 column eluted at 0.6 mLs/min. The eluate from the TSK columns is passed through a Beckman 170 radioisotope detector, and radioactivity is plotted and integrated using a Hewlett-Packard 3396A integrator, and the fraction of peptide bound is determined.
(§2) Since under these conditions [label]<[HLA] and IC₅₀≥[HLA], the measured IC₅₀ values are reasonable approximations of the true KD values. […] For database purposes, and inter-experiment comparisons, relative binding values are compiled. These values can subsequently be converted back into IC₅₀ nM values by dividing the IC₅₀ nM of the positive controls for inhibition by the relative binding of the peptide of interest.

HLA-B08:01 [3] = molecular target: HLA-B08:01 (human); test: competition with 125I probe peptide for purified HLA class I
Description: as §1, §2

Stability (T1/2 (h)) (HLA-B08:01 [1]): 0 h
Binder: FQNGKMALSA (FRG1B, L52S)

Stability (T1/2 (h)) (HLA-B08:01 [1]): 0 h
Binder: FLLALWECSL (MSH3(-1))

Stability (T1/2 (h)) (HLA-B08:01 [1]): 0 h
Binder: YVMAYVMAGV (HER2, G776insYVMA)

Stability (T1/2 (h)) (HLA-B08:01 [1]): 0.4 h
Binder: YMFLKAESKI (GATA3 CSNH)

Stability (T1/2 (h)) (HLA-B08:01 [1]): 0 h
Binder: FLQEQYHEA (GATA3 YHEA)

Second part, the binder before the results:

Binder: YVMAYVMAG (HER2, G776insYVMA)
Stability (T1/2 (h)) (HLA-B08:01 [1]): 1.2 h

B1: SQIMSLWGL (peptide)
peptide: SQIMSLWGL
notes: NAB:STAT6 (variant 1 of Chmielecki et al.)
Stability (T1/2 (h)) (HLA-B08:01 [1]): 0 h

Binder: YLGNHMNIA (KIT, V654A)
IC50 (HLA-B08:01 [2]): 872 nM
Stability (T1/2 (h)) (HLA-B08:01 [1]): 0 h

Binder: SLGNHLCPL (MLL2, CRLS)
Stability (T1/2 (h)) (HLA-B08:01 [1]): 0.5 h

Binder: SLMPAHWSI (JAK1(-1))
Stability (T1/2 (h)) (HLA-B08:01 [1]): 0 h

Binder: LKKLRSPL (also called SMAP1(-1))
IC50 (HLA-B08:01 [3]): 0.6 nM

Binder: LSLMPAHWSI (JAK1(-1))
Stability (T1/2 (h)) (HLA-B08:01 [1]): 0 h

Binder: FELLSTPPL (MYC, P57S)
IC50 (HLA-B08:01 [2]): 3180 nM
Stability (T1/2 (h)) (HLA-B08:01 [1]): 0 h

Reference: US20230414735A1 (BIONTECH US, published 2023)
